Laboratory results taken from paper PMC11957415, “Size-exclusion chromatography–small-angle neutron scattering system optimized for an instrument with medium neutron flux” (Journal of Applied Crystallography, 2025).

T1: hydrogenated KaiC, phosphorylation mimic S431D (Synechococcus elongatus PCC 7942, UniProt Q79PF4 1-519, S431D)
T1 construct: Clock protein KaiC from Synechococcus elongatus PCC 7942, phosphorylation site S431 substituted with aspartate; KaiB and KaiC were mixed at a molar ratio of 12:6, and M from I(0) of hC alone is 334 ± 11 kDa; The buffer contained 3 mM ATP and 5 mM MgCl2; also called hC; h-KaiC; source: expressed and purified as previously described
T1 sequence (looked up): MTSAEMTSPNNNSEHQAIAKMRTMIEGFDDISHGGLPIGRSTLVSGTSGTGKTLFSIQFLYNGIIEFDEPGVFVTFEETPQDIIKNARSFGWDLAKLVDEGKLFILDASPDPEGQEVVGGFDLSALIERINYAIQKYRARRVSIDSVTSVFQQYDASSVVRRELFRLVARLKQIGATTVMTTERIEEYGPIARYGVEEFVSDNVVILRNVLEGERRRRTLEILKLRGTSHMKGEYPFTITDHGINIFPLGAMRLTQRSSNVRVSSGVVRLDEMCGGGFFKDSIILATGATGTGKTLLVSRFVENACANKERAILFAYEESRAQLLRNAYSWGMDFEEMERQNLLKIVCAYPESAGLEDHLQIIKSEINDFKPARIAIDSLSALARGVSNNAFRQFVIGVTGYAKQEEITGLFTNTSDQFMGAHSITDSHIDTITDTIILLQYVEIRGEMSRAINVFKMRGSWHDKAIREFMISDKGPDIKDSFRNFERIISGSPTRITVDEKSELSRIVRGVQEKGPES

B1: 71% deuterated KaiB (natural protein, Synechococcus elongatus PCC 7942, UniProt Q79PF5 1-102, looked up)
chain: MSPRKTYILKLYVAGNTPNSVRALKTLKNILEVEFQGVYALKVIDVLKNPQLAEEDKILATPTLAKVLPLPVRRIIGDLSDREKVLIGLDLLYGELQDSDDF
modifications: partially deuterated; degree of deuteration 71% (MALDI-TOF mass spectrometry)
notes: Clock protein KaiB from Synechococcus elongatus PCC 7942; also called 71dB; 71d-KaiB; source: bacterial cells grown in M9 minimal H2O/D2O mixture media with hydrogenated and deuterated glucose, purified
B2: hydrogenated KaiB (natural protein, Synechococcus elongatus PCC 7942, UniProt Q79PF5 1-102, looked up)
chain: B1 chain
notes: Clock protein KaiB from Synechococcus elongatus PCC 7942; also called hB; h-KaiB; source: expressed and purified as previously described

Legend:
[1] = target: T1, hydrogenated KaiC, phosphorylation …; experiment: SEC; KaiB and KaiC mixed at a molar ratio of 12:6 and incubated at 303 K for 48 h; Superdex 200 Increase 10/300 GL, 0.5 mL/min; 98% D2O buffer with 50 mM sodium phosphate pH 7.8, 150 mM NaCl, 5 mM MgCl2, 0.5 mM EDTA, 1 mM DTT, 3 mM ATP, 50 mM glutamic acid, 50 mM arginine; conditions: both partners purified
[2] = target: T1, hydrogenated KaiC, phosphorylation …; experiment: SEC-SANS; BC complex fraction from SEC stored in the SANS cell (stopping mode), 298 K, 98% D2O clock protein buffer; compared with hC alone; conditions: both partners purified

| Binder | binding result [1] | binding result [2] |
| --- | --- | --- |
| B1 | binds | – |
| B2 | – | binds |
